Results from article PMC8399149, “Engineering of Yeast Old Yellow Enzyme OYE3 Enables Its Capability Discriminating of (E)-Citral and (Z)-Citral” (Molecules, 2021).

Key:
purified protein [1] = substrate: CC(C)=CCC/C(C)=C/C=O; test: purified protein; assay type: biochemical, Saccharomyces cerevisiae; settings: FMN, NADPH active site
purified protein [2] = substrate: CC(C)=CCC/C(C)=C\C=O; test: purified protein; assay type: biochemical, Saccharomyces cerevisiae; settings: FMN; NADPH active site; H191/N194 hydrogen bonds with the carbonyl oxygen of citral, hydride from FMNH2 to Cβ, Y196 proton donor (docking)
[3] = H191/N194 hydrogen bonds with the carbonyl oxygen of citral, hydride from FMNH2 to Cβ, Y196 proton donor (docking)

Row | Protein | Km (purified protein [1]; accommodation similar to OYE3 (docking)) [µM] | Km (purified protein [2]) [µM] | Vmax (purified protein [2]) [µmol/min/mg] | kcat (purified protein [2]) [s⁻¹] | kcat/Km (purified protein [2]) [M⁻¹ s⁻¹] | Km (purified protein [1]; [3]) [µM] | Vmax (purified protein [1]; [3]) [µmol/min/mg] | kcat (purified protein [1]; [3]) [s⁻¹] | kcat/Km (purified protein [1]; [3]) [M⁻¹ s⁻¹]
1 | old yellow enzyme OYE3 (Saccharomyces cerevisiae S288C; S297F/W117G) (protein) MPFVKGFEPISLRDTNLFEPIKIGNTQLAHRAVMPPLTRMRATHPGNIPNKEWAAVYYGQRAQRPGTMIITEGTFISPQAGGYDNAPGIWSDEQVAEWKNIFLAIHDCQSFAWVQLGSLGWASFPDVLARDGLRYDCASDRVYMNATLQEKAKDANNLEHSLTKDDIKQYIKDYIHAAKNSIAAGADGVEIHSANGYLLNQFLDPHSNKRTDEYGGTIENRARFTLEVVDALIETIGPERVGLRLSPYGTFNSMSGGAEPGIIAQYSYVLGELEKRAKAGKRLAFVHLVEPRVTDPFLVEGEGEYSEGTNDFAYSIWKGPIIRAGNYALHPEVVREQVKDPRTLIGYGRFFISNPDLVYRLEEGLPLNKYDRSTFYTMSAEGYTDYPTYEEAVDLGWNKN | 90 | – | – | – | – | – | – | – | –
2 | old yellow enzyme OYE3 (Saccharomyces cerevisiae S288C) (protein) PFVKGFEPISLRDTNLFEPIKIGNTQLAHRAVMPPLTRMRATHPGNIPNKEWAAVYYGQRAQRPGTMIITEGTFISPQAGGYDNAPGIWSDEQVAEWKNIFLAIHDCQSFAWVQLWSLGWASFPDVLARDGLRYDCASDRVYMNATLQEKAKDANNLEHSLTKDDIKQYIKDYIHAAKNSIAAGADGVEIHSANGYLLNQFLDPHSNKRTDEYGGTIENRARFTLEVVDALIETIGPERVGLRLSPYGTFNSMSGGAEPGIIAQYSYVLGELEKRAKAGKRLAFVHLVEPRVTDPSLVEGEGEYSEGTNDFAYSIWKGPIIRAGNYALHPEVVREQVKDPRTLIGYGRFFISNPDLVYRLEEGLPLNKYDRSTFYTMSAEGYTDYPTYEEAVDLGWNKN | – | 70 ± 10 | 0.12 | 0.1 ± 0.01 | 1490 ± 80 | 50 ± 10 | 0.16 | 0.13 ± 0.02 | 2760 ± 110
